Molecular target: V5-tagged IP6K1 (human, UniProt Q92551-1 1-441)
Assay: cell-based or functional assay

Sequence of V5-tagged IP6K1 (Q92551 whole entry): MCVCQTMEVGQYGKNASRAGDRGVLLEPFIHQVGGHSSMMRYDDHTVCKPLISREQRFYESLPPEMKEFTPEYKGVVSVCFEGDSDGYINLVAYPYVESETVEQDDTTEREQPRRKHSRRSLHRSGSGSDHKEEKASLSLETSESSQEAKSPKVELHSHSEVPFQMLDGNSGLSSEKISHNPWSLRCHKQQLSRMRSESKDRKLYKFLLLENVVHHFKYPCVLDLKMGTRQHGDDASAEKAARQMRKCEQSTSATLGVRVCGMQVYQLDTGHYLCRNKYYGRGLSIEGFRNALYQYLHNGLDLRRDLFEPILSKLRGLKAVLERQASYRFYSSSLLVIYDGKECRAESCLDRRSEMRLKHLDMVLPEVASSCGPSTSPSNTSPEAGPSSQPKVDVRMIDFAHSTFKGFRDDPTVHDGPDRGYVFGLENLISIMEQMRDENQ

B1: myc epitope-tagged AP3B1 (natural protein, human, UniProt O00203-1 1-1094, looked up)
chain: MSSNSFPYNEQSGGGEATELGQEATSTISPSGAFGLFSSDLKKNEDLKQMLESNKDSAKLDAMKRIVGMIAKGKNASELFPAVVKNVASKNIEIKKLVYVYLVRYAEEQQDLALLSISTFQRALKDPNQLIRASALRVLSSIRVPIIVPIMMLAIKEASADLSPYVRKNAAHAIQKLYSLDPEQKEMLIEVIEKLLKDKSTLVAGSVVMAFEEVCPDRIDLIHKNYRKLCNLLVDVEEWGQVVIIHMLTRYARTQFVSPWKEGDELEDNGKNFYESDDDQKEKTDKKKKPYTMDPDHRLLIRNTKPLLQSRNAAVVMAVAQLYWHISPKSEAGIISKSLVRLLRSNREVQYIVLQNIATMSIQRKGMFEPYLKSFYVRSTDPTMIKTLKLEILTNLANEANISTLLREFQTYVKSQDKQFAAATIQTIGRCATNILEVTDTCLNGLVCLLSNRDEIVVAESVVVIKKLLQMQPAQHGEIIKHMAKLLDSITVPVARASILWLIGENCERVPKIAPDVLRKMAKSFTSEDDLVKLQILNLGAKLYLTNSKQTKLLTQYILNLGKYDQNYDIRDRTRFIRQLIVPNVKSGALSKYAKKIFLAQKPAPLLESPFKDRDHFQLGTLSHTLNIKATGYLELSNWPEVAPDPSVRNVEVIELAKEWTPAGKAKQENSAKKFYSESEEEEDSSDSSSDSESESGSESGEQGESGEEGDSNEDSSEDSSSEQDSESGRESGLENKRTAKRNSKAKGKSDSEDGEKENEKSKTSDSSNDESSSIEDSSSDSESESEPESESESRRVTKEKEKKTKQDRTPLTKDVSLLDLDDFNPVSTPVALPTPALSPSLMADLEGLHLSTSSSVISVSTPAFVPTKTHVLLHRMSGKGLAAHYFFPRQPCIFGDKMVSIQITLNNTTDRKIENIHIGEKKLPIGMKMHVFNPIDSLEPEGSITVSMGIDFCDSTQTASFQLCTKDDCFNVNIQPPVGELLLPVAMSEKDFKKEQGVLTGMNETSAVIIAAPQNFTPSVIFQKVVNVANVGAVPSGQDNIHRFAAKTVHSGSLMLVTVELKEGSTAQLIINTEKTVIGSVLLRELKPVLSQG
back-pyrophosphorylation of myc-AP3B1 by 5[β-32P]InsP7 after immunoprecipitation from IP6K1 knockout HEK293T cells co-expressing IP6K1-V5 and HA-CK2α, with SFB-IDR-1 against without: ~2 fold

Source: PMC11461180, “Interaction with IP6K1 supports pyrophosphorylation of substrate proteins by the inositol pyrophosphate 5-InsP7” (Bioscience Reports, 2024)
